The source of these data is article PMC12329711, “(Reverse) Evolution of a Promiscuous Isochorismate Pyruvate Lyase into an Efficient Chorismate Mutase” (Biochemistry, 2025).

Holding throughout (assay): purified protein
Holding throughout (settings): pH 7.5; 30.0 °C

The test system of data set [1] is C=C(O[C@@H]1C=C(C(=O)O)C=C[C@H]1O)C(=O)O. It is filed as biochemical, Escherichia coli.
Data set [2] shares this test system.
For data set [3], the system named is C=C(O[C@H]1C=CC=C(C(=O)O)[C@@H]1O)C(=O)O.

For (Escherichia coli K-12), the Km in data set [1] stood at 240 µM.

(Pseudomonas aeruginosa PAO1): in data set [2], the Km is 41 ± 5 µM.

As for (Mycobacterium tuberculosis H37Rv), the Km in data set [2] turned out to be 170 ± 16 µM. Also, in data set [3], the Km came to 200 ± 30 µM and the catalytic efficiency (kcat/Km) came out at 4.4 ± 0.4 M⁻¹ s⁻¹.

What is called Km is the substrate concentration at which the rate is half of its maximum. Broadly, the kcat/Km is the turnover number divided by the Michaelis constant.
